Reference: patent publication US20060199251

What was measured:
[1] = target: T1, Ac-IEPD-pNA (N-acetyl-L-isoleucyl-L-glutamyl-L-prolyl-L-aspartyl-p-nitroaniline)
T1 chain: IEPD

Sequence of H6-IEGR-RAP (P30533 whole entry): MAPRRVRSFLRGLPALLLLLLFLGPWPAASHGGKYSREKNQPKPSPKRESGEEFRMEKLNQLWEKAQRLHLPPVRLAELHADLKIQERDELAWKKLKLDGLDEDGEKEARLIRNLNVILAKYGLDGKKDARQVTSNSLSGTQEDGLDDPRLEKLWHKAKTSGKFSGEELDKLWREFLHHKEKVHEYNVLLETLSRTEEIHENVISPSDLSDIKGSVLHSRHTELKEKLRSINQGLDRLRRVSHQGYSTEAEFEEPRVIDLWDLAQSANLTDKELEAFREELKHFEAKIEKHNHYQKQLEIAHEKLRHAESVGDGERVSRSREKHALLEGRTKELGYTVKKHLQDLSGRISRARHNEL

B1: purified bovine blood clotting factor Xa (protein)
chain: ANSFLEEVKQGNLERECLEEACSLEEAREVFEDAEQTDEFWSKYKDGDQCEGHPCLNQGHCKDGIGDYTCTCAEGFEGKNCEFSTREICSLDNGGCDQFCREERSEVRCSCAHGYVLGDDSKSCVSTERFPCGKFTQGRSRRWAIHTSEDALDASELEHYDPADLSPTESSLDLLGLNRTEPSAGEDGSQVVRIVGGRDCAEGECPWQALLVNEENEGFCGGTILNEFYVLTAAHCLHQAKRFTVRVGDRNTEQEEGNEMAHEVEMTVKHSRFVKETYDFDIAVLRLKTPIRFRRNVAPACLPEKDWAEATLMTQKTGIVSGFGRTHEKGRLSSTLKMLEVPYVDRSTCKLSSSFTITPNMFCAGYDTQPEDACQGDSGGPHVTRFKDTYFVTGIVSWGEGCARKGKFGVYTKVSNFLKWIDKIMKARAGAAGSRGHSEAPATWTVPPPLPL
- fusion protein cleaved, SDS PAGE, 6 hours at 23° C., protease:substrate 1:1000 (H6Ubi-IEGR-ApoA1): only a small fraction of the FXa substrate, H6Ubi-IEGR-ApoA1, has been cleaved after 6 hours
- time to complete cleavage, 23° C., protease:substrate 1:1000 (H6Ubi-IEGR-ApoA1): FXa requires more than 48 hours to complete the cleavage of the FXa substrate
- cleavage of fusion protein, SDS PAGE, ½ hour at 23° C., protease:fusion protein 1:1000 (H6-IEGR-RAP): After only ½ hour almost all of the fusion protein had been cleaved to give the correct product for both incubations
- degradation of fusion protein, SDS PAGE, 27 hours at 23° C. (H6-IEGR-RAP): all of the fusion protein had been degraded to give a variety of smaller fragments after 27 hours, and there is no correctly cleaved product left

B2: GrB-H6 C228F (activated human Granzyme B variant, Cys228 (chymotrypsinogen numbering) to Phe, C-terminal hexa-His tag) (protein)
chain: MGSIEPDIIGGHEAKPHSRPYMAYLMIWDQKSLKRCGGFLIQDDFVLTAAHCWGSSINVTLGAHNIKEQEPTQQFIPVKRPIPHPAYNPKNFSNDIMLLQLERKAKRTRAVQPLRLPSNKAQVKPGQTCSVAGWGQTAPLGKHSHTLQEVKMTVQEDRKCESDLRHYYDSTIELCVGDPEIKKTSFKGDSGGPLVCNKVAQGIVSYGRNNGMPPRAFTKVSSFVHWIKKTMKRYLNSHHHHHH
- cleavage by immobilized enzyme, non-reducing SDS-PAGE, room temperature over night (H6-TripUB IQAD↓SG): For all twelve cleavage experiments the fusion proteins are cleaved to give a single product corresponding to TripUbi moiety from which the H6 fusion partner has been cleaved off
- cleavage by immobilized enzyme, non-reducing SDS-PAGE, room temperature over night (H6-TripUB IQAD↓SP): For all twelve cleavage experiments the fusion proteins are cleaved to give a single product corresponding to TripUbi moiety from which the H6 fusion partner has been cleaved off
- cleavage of fusion protein, SDS PAGE, 24 hours at 23° C., protease:fusion protein 1:500 (H6-TripUB IEPD↓TQ): this is app. 100% completed after only 24 hours
- fusion protein cleaved, SDS PAGE, 6 hours at 23° C., protease:substrate 1:1000 (H6Ubi-IEPD-ApoA1): The GrB substrate, H6Ubi-IEPD-ApoA1, is approximately 100% cleaved after only 6 hours incubation at 23 °C
- fusion protein cleaved, SDS PAGE, 48 hours at 21° C., protease:fusion protein 1:500 (H6-TripUB IEPD↓EP): after 48 hours at 21 °C approximately 35-40% has been cleaved
- fusion protein cleaved, SDS PAGE, 50 hours at 21° C., protease:fusion protein 1:500 (H6-TripUB IEPD↓EP): after 50 hours at 21 °C approximately 40% has been cleaved
- cleavage of fusion protein, SDS PAGE, 96 hours at 23° C., protease:fusion protein 1:500 (H6-TripUB IEPD↓SP): the cleavage is almost 100% complete after 96 hours
- fusion protein cleaved, SDS PAGE, 48 hours at 21° C., protease:fusion protein 1:500 (H6-TripUB IEPD↓SP): After 48 hours approximately 40% has been cleaved at 21 °C
- KM (µM), colorimetric assay, Lineweaver-Burk plot, 100 mM HEPES pH 7.75, 20 nM enzyme [1]: 27 µM
- kcat [1]: 4.85 s⁻¹
- kcat/KM (10^4 s^-1M^-1) [1]: 180000 s^-1M^-1
- cleavage of fusion protein, SDS PAGE, 24 hours at 23° C., protease:fusion protein 1:500 (H6-TripUB IEPD↓IV): This is also the case for the cleavage of H6-TripUB IEPD↓IV (app. 100% completed after only 24 hours)
- cleavage of fusion protein, SDS PAGE, 6 hours, protease:fusion protein 1:500 (H6-TripUB IEPD↓EG): after only 6 hours the cleavage has been completed
- time to complete cleavage, protease to substrate ratio 1:500 (H6-TripUB IEPD↓EG): it takes less than 5 hours for GrB-H6 C228F to complete the cleavage of H6-TripUbi IEPD↓EG
